Data set [1] concerns the molecule itself. In words: cross-linking; purified CAC reconstituted in liposomes (0.5 µg protein), 0.5 mM Sulfo-MBS (spacer arm 9.9 Å), 30 min at room temperature, quenched with 10 mM DTE and 20 mM Tris-HCl pH 8.0; SDS-PAGE and immunoblot. On the technique in general: A western blot detects proteins with antibodies after separation by electrophoresis.
Data set [2] concerns the molecule itself. As to the kind of experiment: native gel or EMSA; Sarkosyl/PAGE: 14% polyacrylamide, 0.05% w/v Sarkosyl in gel, samples and running buffer, 100 Volt, 4 °C; purified CAC in Triton X-100 or extracted from proteoliposomes with 0.05% Sarkosyl; silver nitrate staining; 59 kDa band excised and run on SDS-PAGE with immunoblot. On the technique in general: In EMSA bound probe runs differently from free probe, usually more slowly.

Data set [3] concerns the molecule itself. In words: cross-linking; recombinant CAC WT alone (100) or mixed with C-lessV (75/25, 50/50) reconstituted in liposomes, incubated with Sulfo-SMPB; SDS-PAGE and immunoblot.

In general, stoichiometry N refers to the number of molecules, sites or subunits per partner or assembly.

B1: native carnitine/acylcarnitine carrier purified from isolated rat liver mitochondria (natural protein, UniProt P97521 1-301, looked up)
chain: MAEEPKPISPLKNLLAGGFGGVCLVFVGHPLDTVKVRLQTQPPSLPGQPPMYSGTIDCFRKTLFREGITGLYRGMAAPIIGVTPMFAVCFFGFGLGKRLQQKSPEDELTYPQLFTAGMLSGVFTTGIMTPGERIKCLLQIQASSGKNKYSGTLDCAKKLYQEFGIRGFYKGTALTLMRDVPASGMYFMTYEWLKNLFTPQGKSVHDLSVPRVLVAGGFRGIFNWVVAIPPDVLKSRFQTAPPGKYPNGFRDVLRELIREEGVTSLYKGFNAVMIRAFPANAACFLGFEIPMKILNWIAPNL
notes: mitochondrial carnitine/acylcarnitine carrier (CAC, SLC25A20), rat, native protein from liver mitochondria; single band of apparent molecular weight 32,500 Da on SDS gel; Integral membrane protein; also called CAC; SLC25A20; source: purified from rat liver mitoplasts (3% Triton X-100 extract, hydroxyapatite, celite with cardiolipin); used in Triton X-100 or reconstituted in liposomes
Take B1: the “stoichiometry N” value in data set [1] was 2; in data set [2], approximately 2.

B2: recombinant carnitine/acylcarnitine carrier wild type (natural protein, UniProt P97521 1-301, looked up)
chain: B1 chain
notes: also called CAC WT; WT; source: overexpressed from cDNA cloned in pMW7, purified, reconstituted in liposomes
On to B2, for which, in data set [3], the “stoichiometry N” value is 2.

For the origin of these results see PMC11430254, “Insights into Transient Dimerisation of Carnitine/Acylcarnitine Carrier (SLC25A20) from Sarkosyl/PAGE, Cross-Linking Reagents, and Comparative Modelling Analysis” (Biomolecules, 2024).
